Laboratory results: article PMC7790537

How the values were obtained:
[1] = biological target: recombinant trimeric HA of A/Victoria/210/2009 (H3N2) (influenza A virus A/Victoria/210/2009 (H3N2))
[2] = biological target: recombinant trimeric HA of A/New Caledonia/20/1999 (H1N1) (influenza A virus A/New Caledonia/20/1999 (H1N1)) (UniProt Q6WG00)

Fab-deficient (ΔFab) IgA1 polymer (from UniProt P01591 23-159) (complex)
> 500 µg/mL: HI activity, minimum HI concentration, Vic210 virus [1] | NT activity, minimum virus-neutralizing concentration, Vic210 virus [1] | HI activity, minimum HI concentration, NC20 virus [2]

Fab-deficient (ΔFab) IgA2m2 polymer (from UniProt P01591 23-159) (complex)
> 500 µg/mL: HI activity, minimum HI concentration, Vic210 virus [1] | NT activity, minimum virus-neutralizing concentration, Vic210 virus [1] | HI activity, minimum HI concentration, NC20 virus [2]
